Values joined by “and” are separate entries in the source; they are usually repeats but may differ in a detail not shown here. Equal values may be shown once.

For orientation: Kd means the concentration at which binding is half-saturated. The low end stands for higher affinity, the high end for lower affinity. By koff is commonly meant the rate constant with which the complex falls apart. Low readings indicate a long-lived complex, high ones a short-lived complex. By kon is commonly meant a measure of how fast the partners come together. Lower therefore signals slow association.

The target in assay [1] is T1, β Amyloid peptide 1-40 (human, UniProt P05067 672-711).
T1 construct: domain: β Amyloid peptide 1-40; Biotinylated peptide 1-40 (Biosource) on avidin Sepharose only captured free antibody in KinExA; also called Aβ 1-40; human Aβ (1-40)
T1 sequence (P05067 672-711 limits assumed): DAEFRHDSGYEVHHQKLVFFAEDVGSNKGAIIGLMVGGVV
Briefly: KinExA, mAb, equilibration 16 h. The procedure:
Typical 1× concentrations were 10 pM of antibody active sites (0.75 ng/mL) and an upper antigen concentration of 100 pM (0.43 ng/mL). […] A KinExA™ instrument (Sapidyne) and standard KD run file were then used to determine the KD of the system. Briefly, the KinExA™ flow cell was charged with the β Amyloid peptide coated beads and washed with PBSA. For the first sample, free antibody in solution was captured by the beads washed with PBSA and detected using 1:250 Goat anti-human Cy5 (Jackson Immunochemicals) in PBSA. The flow cell was then flushed, re-charged with beads and the next sample analyzed. The process was repeated until all 12 samples were analyzed.
(§1) For KinExA™ kₒₙ and koff measurements, antigen and antibody were prepared as described above. Antigen and antibody samples at 2× active concentration were prepared in PBSA with 0.2% BSA. Samples were mixed 1:1 and the timing for the experiment started. Typical 1× concentrations were 1 nM antibody active site concentration ([…]) and 2 nM antigen (8.6 ng/mL). A KinExA™ instrument (Sapidyne) and a kineticsdirect run file were used to follow the reaction. Time for each measurement was determined using the manufacturer's instructions. Free antibody remaining in the reaction was captured using β amyloid coated beads packed into the flow cell washed with PBSA and detected at each time point using 1:250 Goat anti-human Cy5 (Jackson) in PBSA. The flow cell was then flushed and recharged with beads for the next measurement, the process continued until a complete decay curve obtained. The data was analyzed using the KinExA™ Inject software.
Background: In KinExA the mixture passes briefly over coated beads that capture the unbound partner.

The target of assay [2] is T1, β Amyloid peptide 1-40. Description: KinExA, mAb, single experiment. The procedure:
as §1
(§2) Association rate constants (kₒₙ) of m266 and antibodies of the present invention with Aβ were determined by KinExA™, using methods as described above in Example 1. The results of two separate kₒₙ determinations by KinExA™, in which separate preparations of antibodies were used, are provided in Tables 7 and 8.

Assay [3] addresses T1, β Amyloid peptide 1-40. Description: KinExA, mAb; m266 is the reference. The procedure: as §1, §2
The target in assay [4] is T1, β Amyloid peptide 1-40. Briefly: BIAcore; m266 is the reference.
Assay [5] concerns the target T1, β Amyloid peptide 1-40. Description: KinExA, mAb, average of the experiments. The procedure: as §1, §2
Assay [6] has as its target T1, β Amyloid peptide 1-40. Description: BIAcore, mAb captured by anti-mouse Fc, Aβ 1-40 injected, first set of preparations. The procedure: (§3) BIAcore™ is an automated biosensor system that measures molecular interactions (Karlsson, et al. (1991) J. Immunol. Methods 145: 229-240). BIAcore™ analyses described herein were carried out at 25° C. In these experiments, antibody was immobilized at low density on a BIAcore™ CM5 or B1 chip. For the m266 antibody goat anti-mouse Fc (Jackson Immunoresearch) immobilized on CM5 in flow cell 2 was used for measuring binding constants. Goat anti-mouse was used as control antibody in flow cell 1. For the humanized antibodies, protein A or protein A/G was immobilized via amine coupling to flow cells 1 and 2 of a B1 or CM5 sensor chip.
Antibody was then captured only to flow cell 2 at desired levels (usually a 10-60 second injection of antibody) and allowed to stabilize for 5 minutes. For these experiments, a fresh aliquot of Aβ 1-40 was thawed and then diluted 1:10 in HBS-EP running buffer. The 1:10 dilution was used to make up a 200 nM Aβ solution which was serially diluted (1:2 dilutions) to a lowest concentration of 6.25 nM. Each concentration was injected over the surface for 5 minutes at a flow rate of 50 μl/min (250 μl total). The Aβ and antibody were eluted from both flow cells with a 40s injection of glycine pH 1.5. The signal is allowed to stabilize for 2 minutes before the next cycle. […] The data was analyzed using the Biaevalution™ software. […]
For orientation: SPR reads the build-up and loss of mass on a sensor chip optically.

Assay [7] addresses T1, β Amyloid peptide 1-40. Description: KinExA, mAb, average of the experiments. The procedure: as §1, §2
The source holds these as a separate data set.

In assay [8] the target is T1, β Amyloid peptide 1-40. Briefly: KinExA, mAb, single experiment, separate antibody preparation. The procedure: as §1
(§4) Association rate constants (kₒₙ) of m266 and antibodies of the present invention with Aβ were determined by KinExA™, using methods as described above in Example 1. […]
(§5) ^aNumbers in bold are the averages calculated from individual experiments. ^bA separate preparation of antibodies was used for these experiments. ^cA separate preparation of antigen was used for these experiments.

The target of assay [9] is T1, β Amyloid peptide 1-40. Briefly: KinExA, mAb, single experiment. The procedure: (§6) Typical 1× concentrations were 10 pM of antibody active sites (0.75 ng/mL) and an upper antigen concentration of 100 pM (0.43 ng/mL). The samples were then allowed to equilibrate for 24-72 hours at room temperature. A KinExA™ instrument (Sapidyne) and standard KD run file were then used to determine the KD of the system. Briefly, the KinExA™ flow cell was charged with the β Amyloid peptide coated beads and washed with PBSA. For the first sample, free antibody in solution was captured by the beads washed with PBSA and detected using 1:250 Goat anti-human Cy5 (Jackson Immunochemicals) in PBSA. The flow cell was then flushed, re-charged with beads and the next sample analyzed. The process was repeated until all 12 samples were analyzed.
This is another data set of the same source.

Assay [10] addresses T1, β Amyloid peptide 1-40. Description: KinExA, mAb, single experiment, separate antibody and antigen preparations. The procedure: as §1, §4, §5
Assay [11] deals with T1, β Amyloid peptide 1-40. Description: KinExA, mAb; m266 is the reference. This is another data set of the same source.
Assay [12] addresses T1, β Amyloid peptide 1-40. Description: KinExA, mAb, single experiment. The procedure:
as §1, §2
The source holds these as a separate data set.

The target in assay [13] is T1, β Amyloid peptide 1-40. Briefly: KinExA, mAb, average of the experiments. The procedure: as §6
This is another data set of the same source.

Assay [14] addresses T1, β Amyloid peptide 1-40. Briefly: KinExA, mAb, single experiment, separate antigen preparation. The procedure: as §1, §4, §5
Assay [15] has as its target T1, β Amyloid peptide 1-40. Briefly: KinExA, mAb; against m266. The procedure: as §6
Assay [16] deals with T1, β Amyloid peptide 1-40. Description: KinExA, mAb. The procedure: as §1, §2
Assay [17] deals with T1, β Amyloid peptide 1-40. Briefly: BIAcore; against m266. The procedure: as §3
(§7) Antibody was then captured only to flow cell 2 at desired levels (usually a 10-60 second injection of antibody) and allowed to stabilize for 5 minutes. For these experiments, a fresh aliquot of Aβ 1-40 was thawed and then diluted 1:10 in HBS-EP running buffer. The 1:10 dilution was used to make up a 200 nM Aβ solution which was serially diluted (1:2 dilutions) to a lowest concentration of 6.25 nM. Each concentration was injected over the surface for 5 minutes at a flow rate of 50 μl/min (250 μl total). The Aβ and antibody were eluted from both flow cells with a 40s injection of glycine pH 1.5. The signal is allowed to stabilize for 2 minutes before the next cycle. The data from flow cell 1 is subtracted from flow cell 2 to account for any bulk shifts due to buffer differences or non-specific binding to the sensor chip or Protein A. The various concentrations were injected randomly and each concentration was run in duplicate. Two control runs of buffer only were used to control for any dissociation of antibody from the capture surface. The data was analyzed using the Biaevalution™ software. A 1:1 model with mass transfer and a local Rmax was used as the best fit for the data.
Concentrations of human Aβ (1-40) from 200 nM to 1.6 nM in 2-fold serial dilution were used to obtain on-rate constant. The upper half of Table 6 represents determinations made with a first set of antibody preparations, while the lower half represents determinations made with a second set of antibody preparations

Assay [18] deals with T1, β Amyloid peptide 1-40. Description: KinExA, mAb; against m266. The procedure: as §1, §2
This is another data set of the same source.

Assay [19] deals with T1, β Amyloid peptide 1-40. Description: BIAcore, mAb captured, Aβ 1-40 injected, first set of preparations. The procedure:
as §3, §7
Concentrations of human Aβ (1-40) from 200 nM to 1.6 nM in 2-fold serial dilution were used to obtain on-rate constant. […]

The target of assay [20] is T1, β Amyloid peptide 1-40. Description: KinExA, mAb. The procedure:
as §6
The source holds these as a separate data set.

Assay [21] deals with T1, β Amyloid peptide 1-40. Briefly: KinExA, mAb, equilibration 24 h. The procedure: as §6, §1

B1: m266 monoclonal antibody (antibody, V domains shown)
VH: EVKLVESGGGLVQPGGSLKLSCAVSGFTFSRYSMSWVRQTPEKRLELVAQINSVGNSTYYPDTVKGRFTISRDNAEYTLSLQMSGLRSDDTATYYCASGDYWGQGTTLTVSS
VL: DVVMTQTPLSLPVSLGDQASISCRSSQSLIYSDGNAYLHWFLQKPGQSPKLLIYKVSNRFSGVPDRFSGSGSGTDFTLKISRVETEDLGVYFCSQSTHVPWTFGGGTKLEIK
modifications: CDR H2 N-glycosylated at the Asn-Ser-Thr sequence
notes: Captured by goat anti-mouse Fc in BIAcore (mouse Fc); also called mouse antibody 266
Regarding B1, the Kd was 76.5 pM in assay [1]; 67.5 pM and 85.4 pM in assay [9]; 76.5 pM in [13]. Moreover, the koff in [1] worked out at 6.73e-06 s⁻¹. Also, the kon in [1] was 88000 M⁻¹ s⁻¹; in assay [2], 129000 M⁻¹ s⁻¹ and 127000 M⁻¹ s⁻¹ and 88000 M⁻¹ s⁻¹; in assay [5] it was 230000 M⁻¹ s⁻¹; in assay [6] it was 130000 M⁻¹ s⁻¹; in assay [7], 154000 M⁻¹ s⁻¹; in assay [8], 186000 M⁻¹ s⁻¹. Further, the kon in [10] is 240000 M⁻¹ s⁻¹; in [12] it was 210000 M⁻¹ s⁻¹ and 240000 M⁻¹ s⁻¹; in [14], 157000 M⁻¹ s⁻¹. Further, the “Fold increase in kon” value in assay [3] turned out to be 1 fold. Besides, the “Fold Increase (kon)” value in assay [4] is 1 fold. In addition, in assay [11], the “Fold increase in affinity” value was 1 fold.

B2: 1B7 monoclonal antibody (IgG1) (antibody, V domains shown)
VH: EVQLVESGGGLVKPGGSLRLSCAASGFTFSRYSMSWVRQAPGKGLEWVGQINSRGNSTYYPDTVKGRFTISRDDSKNTLYLQMNSLKTEDTAVYYCTTGDFWGQGTLVTVSS
VL: DIVMTQTPLSLSVTPGQPASISCRSSQSLIYSDGNAYLHWYLQKPGQSPQLLIYKVSNRFSGVPDRFSGSGSGTDFTLKISRVEAEDVGVYYCSQSTHSPWTFGGGTKVEIK
For B2, the Kd in assay [1] is 122 pM; in assay [20] it was 674 pM. The molecule also returned a koff in [1] of 0.000214 s⁻¹. The figures for the kon in [1], in assay [16] and in assay [19] were 1.76e+06 M⁻¹ s⁻¹, 630000 M⁻¹ s⁻¹ and 590000 M⁻¹ s⁻¹, respectively. The “Fold increase in affinity” value in assay [15] came to 0.11 fold. Moreover, the “Fold Increase (kon)” value in assay [17] was determined as 5 fold. In assay [18], the “Fold increase in kon” value turned out to be 3 fold.

B3: 1A1 monoclonal antibody (IgG1) (antibody, V domains shown)
VH: EVQLVESGGGLVKPGGSLRLSCAASGYTFSRYSMSWVRQAPGKGLEWVGQINIRGNNTYYPDTVKGRFTISRDDSKNTLYLQMNSLKTEDTAVYYCTTGDFWGQGTLVTVSS
VL: DIVMTQTPLSLSVTPGQPASISCSSSQSLIYSDGNAYLHWYLQKPGQSPQLLIYKVSNRFSGVPDRFSGSGSGTDFTLKISRVEAEDVGVYYCTQSTHSPWTFGGGTKVEIK
Take B3: the kon in [2] is 1.06e+06 M⁻¹ s⁻¹ and 954000 M⁻¹ s⁻¹ and 912000 M⁻¹ s⁻¹ and 883000 M⁻¹ s⁻¹; in [21] it was 880000 M⁻¹ s⁻¹; in assay [19] it was 390000 M⁻¹ s⁻¹; in [5], 510000 M⁻¹ s⁻¹; in assay [7], 913000 M⁻¹ s⁻¹; in [8], 762000 M⁻¹ s⁻¹. The kon in assay [10] was 851000 M⁻¹ s⁻¹; in assay [12], 580000 M⁻¹ s⁻¹ and 550000 M⁻¹ s⁻¹ and 390000 M⁻¹ s⁻¹; in assay [14] it was 976000 M⁻¹ s⁻¹. In addition, in [15], the “Fold increase in affinity” value worked out at 17 fold. Besides, the Kd in assay [21] is 1.2 pM; in assay [9], 3.2 pM and 5.7 pM; in assay [13], 4.5 pM. This molecule had a koff in assay [21] of 1.1e-06 s⁻¹. Besides, the “Fold Increase (kon)” value in assay [17] stood at 3 fold. Also, the “Fold increase in kon” value in assay [18] was 2 fold.
